In assay [1] the target is T1, mf TFRC ecto-mmh (REGN2054), monomeric monkey (cyno) Tfrc ectodomain with C-terminal myc-myc-hexahistidine tag (monkey (cyno), Macaca fascicularis, UniProt H9EXL1 89-760).
T1 construct: range 89-760; also called mfTfR-mmh; mfTFR-mmh
Description: SPR (Biacore), mAb from CHO supernatant captured on anti-human Fc, 100 nM mfTfR-mmh injected, 25 C. How it is done:
(§1) Biacore binding kinetics assays were conducted for the interaction of 32 anti-human TfR IgG1 monoclonal antibodies from CHO supernatants with TfR reagents at 25° C.
(§2) Equilibrium dissociation constants (KD) for the interaction of anti-TfR monoclonal antibodies with human and fascicularis monkey TfR ecto domain recombinant proteins were determined using a real-time surface plasmon resonance (SPR) based Biacore S200 biosensor. All binding studies were performed in 10 mM HEPES, 150 mM NaCl, 3 mM EDTA, and 0.05% v/v surfactant Tween-20, pH 7.4 (HBS-EP) running buffer at 37° C. The Biacore CM5 sensor surface was first derivatized by amine coupling with a monoclonal mouse anti-human Fc antibody (REGN2567) followed by a step to capture anti-TfR monoclonal antibodies in CHO conditioned media. […] The dissociation of TfR bound to anti-TfR monoclonal antibodies was monitored for 3 minutes in HBS-EP running buffer. At the end of each cycle, the anti-TfR monoclonal antibodies capture surface was regenerated using a 12-sec injection of 20 mM H₃PO₄. The association rate (ka) and dissociation rate (kd) were determined by fitting the real-time binding sensorgrams to a 1:1 binding model with mass transport limitation using Scrubber 2.0 c software. The dissociation equilibrium constant (KD) and dissociative half-life (t½) were calculated from the kinetic rate constants as: […]

Assay [2] has as its target T2, hmm.hTfRC (REGN2431), human transferrin receptor extracellular domain with hexahistidine-myc-myc tag (human, UniProt P02786 89-760).
T2 construct: Monomeric recombinant protein, 79210 g/mol; also called hTFR-mmh; His-myc-myc-hTFRC ecto
The assay is described as follows: SPR (Biacore), mAb captured on anti-human Fc, 100 nM hTFR-mmh, 25 C. A general note: Surface plasmon resonance follows binding to a sensor surface in real time, without labels.

Assay [3] has as its target T1, mf TFRC ecto-mmh (REGN2054), monomeric …. Description: SPR (Biacore), mAb captured on anti-human Fc, 100 nM mfTfR-mmh, 25 C.
Assay [4] concerns the target T3, REGN2431 (hmm.hTfRC); monomeric human Tfrc ectodomain, amino acids C89-F760, with N-terminal … (human, UniProt P02786 89-760).
T3 construct: also called hTfR-mmh; hTFR-mmh
The assay is described as follows: SPR (Biacore), mAb from CHO supernatant captured on anti-human Fc, 100 nM hTfR-mmh injected, 25 C. How it is done: as §1, §2

The target in assay [5] is T4, REGN2054 (mf TFRC ecto-mmh); monomeric monkey (cyno) Tfrc ectodomain, amino acids C89-F760, with C-terminal … (cynomolgus monkey (Macaca fascicularis), UniProt H9EXL1 89-760 (rhesus entry)).
T4 construct: range 89-760; also called mfTFR-mmh; mfTfR-mmh
T4 sequence (chain, as listed by the source): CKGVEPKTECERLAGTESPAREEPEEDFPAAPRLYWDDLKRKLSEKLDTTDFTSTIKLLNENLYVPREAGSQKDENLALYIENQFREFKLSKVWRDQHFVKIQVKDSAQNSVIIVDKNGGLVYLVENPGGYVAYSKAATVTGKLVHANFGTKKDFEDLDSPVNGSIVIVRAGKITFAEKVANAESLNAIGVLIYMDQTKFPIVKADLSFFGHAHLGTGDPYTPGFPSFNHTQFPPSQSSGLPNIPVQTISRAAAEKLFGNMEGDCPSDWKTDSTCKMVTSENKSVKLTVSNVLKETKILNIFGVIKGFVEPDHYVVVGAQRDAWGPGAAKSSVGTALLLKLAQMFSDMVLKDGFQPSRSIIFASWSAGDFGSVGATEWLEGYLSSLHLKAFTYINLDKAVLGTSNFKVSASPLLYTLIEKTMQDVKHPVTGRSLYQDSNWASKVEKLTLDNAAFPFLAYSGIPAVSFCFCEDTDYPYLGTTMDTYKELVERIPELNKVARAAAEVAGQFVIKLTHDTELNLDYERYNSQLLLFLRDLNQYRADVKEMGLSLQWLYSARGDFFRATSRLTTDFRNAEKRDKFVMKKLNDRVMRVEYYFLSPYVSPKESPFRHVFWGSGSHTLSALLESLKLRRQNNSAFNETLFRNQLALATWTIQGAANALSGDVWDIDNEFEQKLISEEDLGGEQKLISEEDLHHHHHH
The assay is described as follows: SPR (Biacore), mAb from CHO supernatant captured on anti-human Fc, 100 nM mfTFR-mmh injected, 25 C. As to the method: as §1, §2

Assay [6] has as its target T2, hmm.hTfRC (REGN2431), human transferrin …. The assay is described as follows: SPR (Biacore), mAb captured on anti-human Fc, 100 nM hTFR-mmh, 25 C; kd fixed at 1.00E-05. How it is done:
as §2, with “All binding studies were performed in 10 mM HEPES, 150 mM NaCl, 3 mM EDTA, and 0.05% v/v surfactant Tween-20, pH 7.4 (HBS-EP) running buffer at 37° C.” left out

T1 sequence (chain, as listed by the source): as above
T2 sequence (P02786 other isoform, or with tags, fused parts or gaps): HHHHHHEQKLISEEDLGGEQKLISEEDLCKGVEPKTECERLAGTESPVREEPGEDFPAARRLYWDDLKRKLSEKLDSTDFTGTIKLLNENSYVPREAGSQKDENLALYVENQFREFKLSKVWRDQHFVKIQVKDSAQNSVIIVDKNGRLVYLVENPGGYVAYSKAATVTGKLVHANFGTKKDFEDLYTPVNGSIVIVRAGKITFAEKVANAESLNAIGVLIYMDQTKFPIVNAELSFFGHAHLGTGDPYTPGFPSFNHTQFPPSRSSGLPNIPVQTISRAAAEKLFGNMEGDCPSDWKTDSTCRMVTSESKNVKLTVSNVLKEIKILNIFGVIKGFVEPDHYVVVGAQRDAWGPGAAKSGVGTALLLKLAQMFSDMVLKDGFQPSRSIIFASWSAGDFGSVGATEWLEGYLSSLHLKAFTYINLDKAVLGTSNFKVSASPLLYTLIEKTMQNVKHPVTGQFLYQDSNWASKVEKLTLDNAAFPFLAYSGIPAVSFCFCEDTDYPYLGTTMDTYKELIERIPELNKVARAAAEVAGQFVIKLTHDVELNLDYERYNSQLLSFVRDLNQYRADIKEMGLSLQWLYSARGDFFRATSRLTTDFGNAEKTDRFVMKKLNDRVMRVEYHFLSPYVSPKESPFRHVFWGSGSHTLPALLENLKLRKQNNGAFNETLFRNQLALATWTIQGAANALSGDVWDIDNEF
T3 sequence (P02786 other isoform, or with tags, fused parts or gaps): as above

B1: 12812B (antibody, human IgG1, kappa, V domains shown)
VH: QVQLVQSGAEVKKPGSSVRVSCKASRGTFSSYAISWVRQAPGQGLEWMGGIIPIFGTANYAQKFLARVTITADESTSTAYMELSSLRSEDTAVYYCAREKGWNYFDYWGQGTLVTVSS
VL: DIQMTQSPPSVSASVGDRVTITCRASQGISSWLAWYQQKPGKAPKLLIYAASSLQSGVPSRFSGSGSGTDFTLTISSLQPEDFATYYCQQANSFPRTFGQGTKVEIKR
notes: Tested as bivalent human IgG1 from CHO primary supernatant
A word on the Kd: it is the free concentration of one partner at which half of the binding sites on the other are occupied at equilibrium, for simple one-to-one binding. In general, koff refers to a measure of how fast the partners let go of each other. What is called kon is a measure of how fast the partners come together. As usually defined, the t½ is how long it takes for the measured level to halve. For the molecule B1, the binding result in assay [1] is given as “no binding (tested: 100 nM)”. Moreover, in assay [2], the “100 nM Ag Bound (RU)” value was 11 RU, binding was put at a Kd of 3.02 nM, the off-rate (koff) came out at 0.00131 s⁻¹ and the kon was found to be 433000 M⁻¹ s⁻¹. For the same molecule, the t½ in assay [2] worked out at 8.8 min. The “100 nM Ag Bound (RU)” value in assay [3] was found to be 1 RU.

B2: 31863B anti-human TfR IgG1 monoclonal antibody (antibody, V domains shown)
VH: EVQLVESGGGLVQPGGSLRLSCAASGFTFNSYAMTWVRQAPGKGLEWVSFIGGSTGNTYYAGSVKGRFTISSDNSKKTLYLQMNSLRAEDTAVYYCAKGGAARRMEYFQHWGQGTLVTVSS
VL: DIQMTQSPSSLSASIGDRVTITCRASQGISNYLAWYQQKPGKVPKLLIYAASTLQSGVPSRFSGSGSGTDFTLTISSLQPEDVATYYCQNHNSVPLTFGGGTKVEIKR
notes: Tested as bivalent IgG1 from CHO primary supernatant
In turn, B2 returned a dissociation constant (Kd) in assay [4] of 0.0656 nM.

B3: 69331 anti-human TfR IgG1 monoclonal antibody (antibody, V domains shown)
VH: QVQLVESGGGVVQPGRSLRLSCIASGFTFSVYGIHWVRQAPGKGLEWMAVISHDGNIKHYADSVKGRFTISRDNSKNTLYLQINSLRTEDTAVYYCAKDTWNSLDTFDIWGQGTMVTVSS
VL: DIQLTQSPSSLSASVGDRVTITCWASQGISSYLAWYQQKPGKAPKLLIYAASTLQSGVPSRFSGSGSGTEFTLTISSLQPEDFATYYCQQLNSYPLTFGGGTKVEIKR
notes: as for B2
For the molecule B3, the dissociation constant (Kd) in assay [5] was determined as 20.5 nM; in assay [4], 41 nM.

B4: 31863B (antibody, human IgG1, kappa, V domains shown)
VH: EVQLVESGGGLVQPGGSLRLSCAASGFTFNSYAMTWVRQAPGKGLEWVSFIGGSTGNTYYAGSVKGRFTISSDNSKKTLYLQMNSLRAEDTAVYYCAKGGAARRMEYFQHWGQGTLVTVSS
VL: DIQMTQSPSSLSASIGDRVTITCRASQGISNYLAWYQQKPGKVPKLLIYAASTLQSGVPSRFSGSGSGTDFTLTISSLQPEDVATYYCQNHNSVPLTFGGGTKVEIKR
notes: as for B1
B4: the Kd in assay [6] is no more than 0.0656 nM. Further, in assay [2], the “100 nM Ag Bound (RU)” value is 1080 RU, the off-rate constant (koff) is less than 1e-05 s⁻¹, the kon was determined as 152000 M⁻¹ s⁻¹ and the t½ is greater than 1160 min. Besides, in assay [3], the “100 nM Ag Bound (RU)” value was determined as 145 RU, the dissociation constant (Kd) came out at 18.3 nM, the koff stood at 0.00298 s⁻¹ and the kon turned out to be 163000 M⁻¹ s⁻¹. The t½ in assay [3] turned out to be 3.9 min.

B5: 12839B (antibody, human IgG1, kappa, V domains shown)
VH: QVQLVESGGGVVQPGRSLRLSCAASGFPFSNYVMYWVRQAPGKGLEWVALIFFDGKKNYHADSVKGRFTITRDNSKNMLYLQMNSLRPEDAAVYYCAKIHCPNGVCYKGYYGMDVWGQGTTVTVSS
VL: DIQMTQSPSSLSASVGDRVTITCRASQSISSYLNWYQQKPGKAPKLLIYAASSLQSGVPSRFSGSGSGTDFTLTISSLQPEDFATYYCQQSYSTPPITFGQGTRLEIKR
notes: Tested as bivalent human IgG1 from CHO primary supernatant; also called H1H12839B; REGN17510
For B5, the binding result in assay [1] is “no binding (tested: 100 nM)”. In assay [2], the “100 nM Ag Bound (RU)” value worked out at 660 RU, the equilibrium dissociation constant (Kd) was 0.448 nM, the koff was found to be 5.33e-05 s⁻¹ and the association rate constant (kon) came to 118000 M⁻¹ s⁻¹. The molecule also displayed a t½ in assay [2] of 217 min. The “100 nM Ag Bound (RU)” value in assay [3] was found to be 11 RU.

B6: 69326 (antibody, human IgG1, kappa, V domains shown)
VH: EVQLVESGGGLVQPGGSLRLSCAVSGFIFSSYEMNWVRQAPGKGLEWVSYISSSGSTIFYADSVKGRFTISRDNAKNSLYLQMNSLRAEDTAVYYCVSGVVLFDVWGQGTMVTVSS
VL: EIVMTQSPATLSVSPGERATLSCRASQSVSSNFAWYQQKPGQAPRLLIYSASSRATGIPVRFSGSGSGTEFTLTISSLQSEDFAVYYCQQYNIWPRTFGQGTKVEIKR
notes: as for B1
Regarding B6, the binding result in assay [1] is reported as “no binding (tested: 100 nM)”. In assay [2], the “100 nM Ag Bound (RU)” value came out at 680 RU, binding was characterised by a dissociation constant (Kd) of 2.22 nM, the koff was found to be 0.000256 s⁻¹ and the on-rate constant (kon) was determined as 115000 M⁻¹ s⁻¹. The t½ in assay [2] is 45.1 min. In addition, the “100 nM Ag Bound (RU)” value in assay [3] came to 9 RU.

B7: 12795B (antibody, human IgG1, kappa, V domains shown)
VH: EVQLVESGGGLVQPGGSLRLSCATSGFTFTSYDMKWVRQAPGLGLEWVSAISGSGGNTYYADSVKGRFTISRDNSRNTLYLQMNSLRAEDTAVYYCTRSHDFGAFDYFDYWGQGTLVTVSS
VL: DIQMTQSPSSLSASVGDRVTITCRASQGIRDHFGWYQQKPGKAPKRLIYAASSLHSGVPSRFSGSGSGTEFTLTISSLQPEDFATYYCLQYDTYPLTFGGGTKVEIKR
notes: as for B1
Consider B7, for which the Kd in assay [6] was no more than 0.0823 nM. Also, in assay [2], the “100 nM Ag Bound (RU)” value amounted to 883 RU, the koff is less than 1e-05 s⁻¹, the on-rate constant (kon) was 122000 M⁻¹ s⁻¹ and the t½ is greater than 1160 min. In assay [3], the “100 nM Ag Bound (RU)” value is 364 RU, the dissociation constant (Kd) amounted to 1.16 nM, the koff was 7.13e-05 s⁻¹ and the kon stood at 61000 M⁻¹ s⁻¹. In assay [3], this molecule yielded a t½ of 162 min.

B8: 12795B anti-human TfR IgG1 monoclonal antibody (antibody, V domains shown)
VH: EVQLVESGGGLVQPGGSLRLSCATSGFTFTSYDMKWVRQAPGLGLEWVSAISGSGGNTYYADSVKGRFTISRDNSRNTLYLQMNSLRAEDTAVYYCTRSHDFGAFDYFDYWGQGTLVTVSS
VL: DIQMTQSPSSLSASVGDRVTITCRASQGIRDHFGWYQQKPGKAPKRLIYAASSLHSGVPSRFSGSGSGTEFTLTISSLQPEDFATYYCLQYDTYPLTFGGGTKVEIKR
notes: as for B2
The molecule B8 yielded a Kd in assay [5] of 1.16 nM.

B9: 12845B (antibody, human IgG1, kappa, V domains shown)
VH: EVQLVESGGGLVQPGGSLRLSCAASGFTVSNYEMNWVRQAPGKGLEWVSYISSSTSNIYYADSVKGRFTISRDNAENSLYLQMNSLRVEDTAVYYCVRDGIVVVPVGRGYYYYGLDVWGQGTTVTVSS
VL: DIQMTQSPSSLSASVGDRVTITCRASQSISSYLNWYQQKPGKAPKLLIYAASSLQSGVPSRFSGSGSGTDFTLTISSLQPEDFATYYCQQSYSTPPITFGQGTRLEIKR
notes: Tested as bivalent human IgG1 from CHO primary supernatant; also called H1H12845B; REGN17513
B9: the binding result in assay [1] is “no binding (tested: 100 nM)”. In assay [2], the “100 nM Ag Bound (RU)” value turned out to be 1100 RU, the Kd amounted to 1.18 nM, the koff is 0.000199 s⁻¹ and the kon was determined as 168000 M⁻¹ s⁻¹. For the same molecule, in assay [2], the t½ was found to be 57.9 min. Further, the “100 nM Ag Bound (RU)” value in assay [3] was found to be 13 RU.

B10: 12834B (antibody, human IgG1, kappa, V domains shown)
VH: QVQLVQSGAEVKKPGASVKVSCKASGYTFTSYGISWVRQAPGQGLEWMGWISVYHGNTNYAQKFQGRVTMTTDTSTSTAYMELRSLRSDDTAVYYCAREGYYDFWSGYYPFDYWGQGTLVTVSS
VL: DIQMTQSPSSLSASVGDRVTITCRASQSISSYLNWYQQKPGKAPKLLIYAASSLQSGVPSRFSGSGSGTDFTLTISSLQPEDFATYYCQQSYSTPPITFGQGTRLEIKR
notes: as for B1
Regarding B10, the binding result in assay [1] is listed as “no binding (tested: 100 nM)”. Also, in assay [2], the “100 nM Ag Bound (RU)” value is 11 RU, binding was characterised by a dissociation constant (Kd) of 7 nM, the koff stood at 0.00439 s⁻¹ and the kon came out at 600000 M⁻¹ s⁻¹. In assay [2], this molecule gave a t½ of 2.6 min. Further, the “100 nM Ag Bound (RU)” value in assay [3] is 5 RU.

B11: 12841B (antibody, human IgG1, kappa, V domains shown)
VH: EVQLVESGGGLVQPGGSLRLSCAASGFTFSNYWMNWVRQAPGKGLEWVANIKEDGGKKLYVDSVKGRFTISRDNAKNSLFLQMNSLRAEDTAVYYCAREDTTLVVDYYYYGMDVWGQGTTVTVSS
VL: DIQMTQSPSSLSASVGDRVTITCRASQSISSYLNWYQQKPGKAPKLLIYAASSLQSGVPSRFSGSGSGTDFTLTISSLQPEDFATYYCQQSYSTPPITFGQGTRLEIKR
notes: Tested as bivalent human IgG1 from CHO primary supernatant; also called H1H12841B; REGN17511
Consider B11, for which the binding result in assay [1] was “no binding (tested: 100 nM)”. Further, in assay [2], the “100 nM Ag Bound (RU)” value came out at 1150 RU, the Kd was 0.67 nM, the off-rate (koff) was 0.000116 s⁻¹ and the association rate constant (kon) worked out at 173000 M⁻¹ s⁻¹. In addition, the t½ in assay [2] was 99.8 min. In assay [3], the “100 nM Ag Bound (RU)” value amounted to 4 RU.

For the origin of these results see patent US20250049896A1 (Regeneron, published 2025).
